Experimental data published in patent US9201073B2, “Methods and compositions for enhancing proteasome activity” (President and Fellows of Harvard College, priority 2007, dated 2015).

Columns and labels:
ubp6Δ proteasomes [1] = molecular target: T1, ubp6Δ proteasomes (Saccharomyces cerevisiae, UniProt P30656+P43588); assay: In vitro ub-cyclin B deubiquitination/degradation assay with purified yeast proteasomes; format: biochemical; conditions: for inhibition of cyclin B degradation: ubp6Δ proteasomes 135 nM, recombinant Ubp6 or Usp14 species 540 nM, Ubl and Ubl-MBP 1.35 μM, preincubated 5 min, immunoblot
T1 construct: proteasomes purified from ubp6Δ mutants; TEV-ProA (TEV site + protein A), chromosomally integrated (C); made in house
Protocol: Proteasomes (135 nM) were incubated with ub-cyclin Bin the presence of 1 mM ATP and buffer (50 mM Tris [pH 7.51, 1 mM EDTA, 5 mM MgCl2) for the indicated times. Reactions were terminated by the addition of 5×SDS Laemmli loading buffer (Leggett, et al. (2002). Multiple associated proteins regulate proteasome structure and function. Mol. Cell. 10, 495-507) and boiled for 5 min. Where indicated, recombinant, purified Ubp6 or Usp14 species (540 nM) were preincubated with proteasomes for 5 min prior to the reaction. […] Unless otherwise noted, immunoblots were visualized with anti-cyclin B1 polyclonal antibodies. Polyclonal antibodies recognizing Ubp6, Rpn5, Rpn12, and ubiquitin were used as indicated. Ub-cyclin B was added in molar excess over proteasome, generally on the order of 25-fold, except for FIGS. 4C, 6A and 6B, where the substrate:enzyme ratio was increased by a factor of five.
In the experiments of FIGS. 1, 4 (except FIG. 4C), and 6C, time points were sampled after the preparation of a single reaction mixture. The zero time points therefore reflect a lag which represents the amount of time required to sample the first time point after having prepared the reaction mixture. […] In the experiments of FIGS. 2, 4C, and 6 (except 6C), each time point was carried out as an independent reaction. The zero time points were prepared in the presence of 5×LLB, and accordingly, no processing could occur before time zero.
Ubiquitination of cyclin B was carried out. Briefly, for each 30 μl reaction, Anaphase Promoting Complex (APC) was immunopurified from 600 μl of mitotic Xenopus egg extract with 12 μg of anti-Cdc27 antibodies (AF3.1, Santa Cruz Biotechnologies, Santa Cruz, Calif.) bound to 30 μl of Affiprep Protein A beads (Bio-Rad, Hercules, Calif.). Beads were washed three times with XB high salt (10 mM potassium HEPES pH 7.7, 500 mM KCl, 0.1 mM CaCl2, 1 mM MgCl2), two times with XB (same but with 100 mM KCl), and then three times into the reaction buffer (20 mM Tris pH 7.5, 100 mM KCl, 2.5 mM MgCl2, 2 mM ATP). Ubiquitination reactions contained immunoprecipitated APC on 30 μl of beads, and 30 μl of a mix containing recombinant MBP-human E1 at 200 μg/ml, histidine-tagged Ubc4 at 66 μg/ml, ubiquitin at 1.25 mg/ml, and 50 μg/ml of histidine-tagged cyclin B1/cdc2 complex expressed in baculovirus. Reactions were incubated for 90 minutes at 22° C. with agitation on a shaker at 1,000 RPM. Reaction supernatants were combined with the eluate from the wash of beads with 20 μl of reaction buffer. Reactions were either used fresh after preparation or frozen at −80° C. until use with purified proteasomes.

proteasomes = molecular target: T2, proteasomes (Saccharomyces cerevisiae, UniProt P30656+P43588); assay: Proteasome-dependent hydrolysis of suc-LLVY-AMC; format: biochemical, yeast; conditions: o-PA treatment
T2 construct: A previously described procedure for purification of the proteasome; TEV-ProA (TEV site + protein A), chromosomally integrated (C); made in house
Description: FIG. 1E is a graph depicting proteasome-dependent hydrolysis of suc-LLVY-AMC (SEQ ID NO: 1), a ubiquitin-independent fluorogenic proteasome substrate. Error bars reflect standard deviations.
The next studies were designed to determine whether the observed difference in cyclin B degradation was due specifically to Ubp6. Proteasomes were examined by Coomassie blue staining (FIG. 1D) and native gel electrophoresis, and no evidence for either an unexpected compositional difference or a gross structural abnormality in mutant proteasomes was found (see also Guterman and Glickman. (2004). Complementary roles for Rpn11 and Ubp6 in deubiquitination and proteolysis by the proteasome. J. Biol. Chem. 279, 1729-1738).

Ubp6 = molecular target: T3, Ubp6 (Saccharomyces cerevisiae, UniProt P43593); assay: Ub-AMC hydrolysis by Ubp6 treated with ubiquitin-vinyl sulfone; format: biochemical, yeast; conditions: Ub-VS 2.5 μM; Ub-AMC 0.5 μM
T3 construct: GST (N, cleaved yes); made in house; host or cells: bacteria (pGEX-4T-1, plasmid pDL74)
T3 sequence (P43593 1-499): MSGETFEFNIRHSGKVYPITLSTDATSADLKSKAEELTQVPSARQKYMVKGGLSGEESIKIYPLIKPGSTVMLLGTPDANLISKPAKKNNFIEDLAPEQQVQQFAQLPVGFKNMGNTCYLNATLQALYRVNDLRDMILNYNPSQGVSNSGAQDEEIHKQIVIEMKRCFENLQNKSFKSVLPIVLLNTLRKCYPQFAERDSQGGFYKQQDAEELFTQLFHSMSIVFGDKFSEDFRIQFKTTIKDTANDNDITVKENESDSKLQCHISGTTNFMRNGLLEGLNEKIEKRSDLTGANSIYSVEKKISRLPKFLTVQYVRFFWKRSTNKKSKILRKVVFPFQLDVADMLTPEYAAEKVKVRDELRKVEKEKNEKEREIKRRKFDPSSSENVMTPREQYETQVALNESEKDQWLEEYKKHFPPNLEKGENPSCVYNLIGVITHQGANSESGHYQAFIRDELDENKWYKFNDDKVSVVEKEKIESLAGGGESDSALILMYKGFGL
Protocol: FIG. 9A depicts the result of an in vitro ub-cyclin B assay carried out with ubp6Δ proteasomes (135 nM) supplemented with wild-type Ubp6 (540 nM) and ubiquitinvinyl sulfone (2.5 μM), as indicated. The lower panel is anti-Ubp6 immunoblot showing modification of Ubp6 by Ub-VS. Ubp6 was present in four-fold molar excess over proteasome, and thus only a fraction of Ubp6 protein was modified.
FIG. 9B depicts the results of Ub-AMC (0.5 μM) hydroylsis assay.
As an alternate approach to assay non-catalytic inhibition, ubiquitin-vinyl sulfone (Ub-VS), an irreversible active site inhibitor of Ubp6, was used. Residual Ub-AMC hyrdolyzing activity in the presence of Ubp6-Ub-VS is at the level of background in this assay. […] Indeed the large excess of substrate over Ubp6 (see Methods described in Example 1) is inconsistent with a model in which Ubp6 inhibits degradation by sequestering substrate. […] Although these functions are distinct, each requires both the Ubl domain and the C-terminal domain. The Ubl domain serves in both cases to target Ubp6 to the proteasome, and that both functions are obligatorily executed on the proteasome.

ubp6Δ proteasomes [2] = molecular target: T1, ubp6Δ proteasomes; assay: Quantitation of proteasome inhibition by quantitative mass spectrometry of cyclin B; format: biochemical, yeast; conditions: 20-minute incubation
Protocol: A standard substrate degradation assay was carried out, and analyzed in parallel by SDS-PAGE followed by Coomassie blue staining and immunoblot with anti-cyclin B antibody. Immunoblots were used to identify and excise the cyclin B-containing regions of the Coomassie-stained gel, and the lanes were analyzed by mass spectrometry.
To quantify the extent of proteasome inhibition by Ubp6, a method of quantitative mass spectrometry was utilized. After a 20-minute incubation, approximately half of the total cyclin B was degraded by ubp6Δ proteasomes (FIG. 4C).

Ub-AMC = Ub-AMC hydrolyzing activity of purified recombinant Ubp6 species; format: biochemical; conditions: purified recombinant enzyme 0.5 μM
Protocol: FIG. 8 is a graph depicting that the Ubp6-C118A mutant lacks deubiquitinating activity. Ub-AMC hydrolyzing activity of purified recombinant wild-type Ubp6 or Ubp6-C118A (0.5 μM). Ub-AMC, no enzyme control.

[3] = molecular target: T4, RP purified from a ubp6Δ mutant (Saccharomyces cerevisiae, UniProt P43588); assay: Processing of ub-cyclin B by regulatory particle (RP); format: biochemical, yeast; conditions: RP 135 nM, four-fold molar excess of Ubp6 species
T4 construct: TEV-ProA (TEV site + protein A), chromosomally integrated (C); made in house
Protocol: FIGS. 6A and 6B depict the processing of ub-cyclin B by RP (ubp6Δ) in the presence or absence of purified Ubp6. Reactions were visualized by immunoblotting with anti-cyclin B antibody or anti-ubiquitin antibody, as indicated.
FIG. 12 is an illustration depicting the RP-mediated disassembly of Ub-cyclin B conjugates by Ubp6. Proteasome regulatory particle (135 nM) purified from a ubp6Δ strain was combined with a four-fold molar excess of Ubp6, Ubp6-ublΔ, or Ubp6-C118A, and Ub-Cyclin B, and incubated for the indicated times. Reactions were visualized by immunoblot with anti-ubiquitin antibody. *represents a non-ubiquitin immunoreactive band.
A previously described procedure for purification of the proteasome (Leggett, et al. (2002). Multiple associated proteins regulate proteasome structure and function. Mol. Cell. 10, 495-507) was modified by adding 1 mM ATP and 5 mM MgCl2 to all purification buffers, and by washing resins with 100 bed vol. of buffer containing 50 mM NaCl, as opposed to 50 bed vol. of buffer containing 100 mM NaCl. RP was purified in the presence of ATP and MgCl2 as described (Leggett et al., 2002).
Proteasomes (135 nM) were incubated with ub-cyclin Bin the presence of 1 mM ATP and buffer (50 mM Tris [pH 7.51, 1 mM EDTA, 5 mM MgCl2) for the indicated times. […]

proteasome = molecular target: T5, proteasome (Saccharomyces cerevisiae, UniProt P30656+P43588); assay: Ub-Cdc34 binding assay (electrophoretic mobility shift of proteasome); parameters: species or system yeast; conditions: proteasome 4 pmoles, ub-Cdc34 8 pmoles, Ubp6-C118A 8 pmoles
T5 construct: A previously described procedure for purification of the proteasome; TEV-ProA (TEV site + protein A), chromosomally integrated (C); made in house
Protocol: Binding of ubiquitinated-Cdc34 (8 pmoles) to proteasome (4 pmoles) was carried by native gel electrophoresis followed by overlay of the fluorogenic activity-based probe, suc-LLVY-AMC (SEQ ID NO: 1), as previously described (Elsasser, et al. (2004). Rad23 and Rpn10 serve as alternative ubiquitin receptors for the proteasome. J. Biol. Chem. 279, 26817-26822). Ubp6 or Ubp6-C118A (8 pmoles) were preincubated with proteasomes prior to substrate addition.

c1cnc2c(c1)ccc1cccnc12 [o-PA, o-phenanthroline, reference compound]
deubiquitination and degradation of cyclin B (ubp6Δ proteasomes [1]; ubp6Δ proteasomes, o-PA 10 mM added 10 min prior to cyclin B): strongly inhibited
LLVY-hydrolysis by proteasomes (proteasomes): no effect

ubiquitin-vinyl sulfone [Ub-VS]
catalytic activity of wild-type Ubp6 as measured by Ub-AMC hydrolysis (Ubp6): completely eliminated

B1: Ubp6-C118A: catalytically inactive point mutant of Ubp6 (protein)
chain: MSGETFEFNIRHSGKVYPITLSTDATSADLKSKAEELTQVPSARQKYMVKGGLSGEESIKIYPLIKPGSTVMLLGTPDANLISKPAKKNNFIEDLAPEQQVQQFAQLPVGFKNMGNTAYLNATLQALYRVNDLRDMILNYNPSQGVSNSGAQDEEIHKQIVIEMKRCFENLQNKSFKSVLPIVLLNTLRKCYPQFAERDSQGGFYKQQDAEELFTQLFHSMSIVFGDKFSEDFRIQFKTTIKDTANDNDITVKENESDSKLQCHISGTTNFMRNGLLEGLNEKIEKRSDLTGANSIYSVEKKISRLPKFLTVQYVRFFWKRSTNKKSKILRKVVFPFQLDVADMLTPEYAAEKVKVRDELRKVEKEKNEKEREIKRRKFDPSSSENVMTPREQYETQVALNESEKDQWLEEYKKHFPPNLEKGENPSCVYNLIGVITHQGANSESGHYQAFIRDELDENKWYKFNDDKVSVVEKEKIESLAGGGESDSALILMYKGFGL
inhibition of cyclin B degradation (ubp6Δ proteasomes [1]): competent for inhibition
inhibition of degradation (cyclin B) (ubp6Δ proteasomes [2]): approximately 70%
deubiquitinating activity against the model substrate Ub-AMC (Ub-AMC): completely devoid of deubiquitinating activity
processing of ub-cyclin B conjugates by RP [3]: no effect on substrate processing
conjugate (ubiquitinated Cdc34) binding to the proteasome (proteasome): comparable conjugate binding

B2: Ubl: N-terminal ubiquitin-like domain of Ubp6 by itself (protein)
chain: MSGETFEFNIRHSGKVYPITLSTDATSADLKSKAEELTQVPSARQKYMVKGGLSGEESIKIYPLIKPGSTVMLLGTPDANLIS
inhibition of cyclin B degradation (ubp6Δ proteasomes [1]): no effect on cyclin B degradation
